Experimental data: IntAct's records for PubMed 19379695

B1: Segment polarity protein dishevelled homolog DVL-2 (Homo sapiens), O14641 (parent)
chain: MAGSSTGGGGVGETKVIYHLDEEETPYLVKIPVPAERITLGDFKSVLQRPAGAKYFFKSMDQDFGVVKEEISDDNARLPCFNGRVVSWLVSSDNPQPEMAPPVHEPRAELAPPAPPLPPLPPERTSGIGDSRPPSFHPNVSSSHENLEPETETESVVSLRRERPRRRDSSEHGAGGHRTGGPSRLERHLAGYESSSTLMTSELESTSLGDSDEEDTMSRFSSSTEQSSASRLLKRHRRRRKQRPPRLERTSSFSSVTDSTMSLNIITVTLNMEKYNFLGISIVGQSNERGDGGIYIGSIMKGGAVAADGRIEPGDMLLQVNDMNFENMSNDDAVRVLRDIVHKPGPIVLTVAKCWDPSPQAYFTLPRNEPIQPIDPAAWVSHSAALTGTFPAYPGSSSMSTITSGSSLPDGCEGRGLSVHTDMASVTKAMAAPESGLEVRDRMWLKITIPNAFLGSDVVDWLYHHVEGFPERREARKYASGLLKAGLIRHTVNKITFSEQCYYVFGDLSGGCESYLVNLSLNDNDGSSGASDQDTLAPLPGATPWPLLPTFSYQYPAPHPYSPQPPPYHELSSYTYGGGSASSQHSEGSRSSGSTRSDGGAGRTGRPEERAPESKSGSGSESEPSSRGGSLRRGGEASGTSDGGPPPSRGSTGGAPNLRAHPGLHPYGPPPGMALPYNPMMVVMMPPPPPPVPPAVQPPGAPPVRDLGSVPPELTASRQSFHMAMGNPSEFFVDVM
B2: E3 ubiquitin-protein ligase SMURF2 (Mus musculus), A2A5Z6 (parent)
chain: MSNPGGRRNGPVKLRLTVLCAKNLVKKDFFRLPDPFAKVVVDGSGQCHSTDTVKNTLDPKWNQHYDLYIGKSDSVTISVWNHKKIHKKQGAGFLGCVRLLSNAINRLKDTGYQRLDLCKLGPNDNDTVRGQIVVSLQSRDRIGTGGQVVDCSRLFDNDLPDGWEERRTASGRIQYLNHITRTTQWERPTRPASEYSSPGRPLSCFVDENTPITGTNGATCGHSSDPRLAERRVRSQRHRNYMSRTHLHTPPDLPEGYEQRTTQQGQVYFLHTQTGVSTWHDPRVPRDLSNINCEELGPLPPGWEIRNTATGRVYFVDHNNRTTQFTDPRLSANLHLVLNRQNQLKDQQQQQVVPLCPDDTECLTVPRYKRDLVQKLKILRQELSQQQPQAGHCRIEVSREEIFEESYRQVMKMRPKDLWKRLMIKFRGEEGLDYGGVAREWLYLLSHEMLNPYYGLFQYSRDDIYTLQINPDSAVNPEHLSYFHFVGRIMGMAVFHGHYIDGGFTLPFYKQLLGKSITLDDMELVDPDLHNSLVWILENDITGVLDHTFCVEHNAYGEIIQHELKPNGKSIPVTEENKKEYVRLYVNWRFLRGIEAQFLALQKGFNEVIPQHLLKTFDEKELELIICGLGKIDVSDWKVNTRLKHCTPDSNVVKWFWKAVEFFDEERRARLLQFVTGSSRVPLQGFKALQGAAGPRLFTIHQIDACTNNLPKAHTCFNRIDIPPYESYEKLYEKLLTAIEETCGFAVE
partner: B1 chain
B3: E3 ubiquitin-protein ligase SMURF2 (Mus musculus), A2A5Z6 (parent)
chain: B2 chain
partner: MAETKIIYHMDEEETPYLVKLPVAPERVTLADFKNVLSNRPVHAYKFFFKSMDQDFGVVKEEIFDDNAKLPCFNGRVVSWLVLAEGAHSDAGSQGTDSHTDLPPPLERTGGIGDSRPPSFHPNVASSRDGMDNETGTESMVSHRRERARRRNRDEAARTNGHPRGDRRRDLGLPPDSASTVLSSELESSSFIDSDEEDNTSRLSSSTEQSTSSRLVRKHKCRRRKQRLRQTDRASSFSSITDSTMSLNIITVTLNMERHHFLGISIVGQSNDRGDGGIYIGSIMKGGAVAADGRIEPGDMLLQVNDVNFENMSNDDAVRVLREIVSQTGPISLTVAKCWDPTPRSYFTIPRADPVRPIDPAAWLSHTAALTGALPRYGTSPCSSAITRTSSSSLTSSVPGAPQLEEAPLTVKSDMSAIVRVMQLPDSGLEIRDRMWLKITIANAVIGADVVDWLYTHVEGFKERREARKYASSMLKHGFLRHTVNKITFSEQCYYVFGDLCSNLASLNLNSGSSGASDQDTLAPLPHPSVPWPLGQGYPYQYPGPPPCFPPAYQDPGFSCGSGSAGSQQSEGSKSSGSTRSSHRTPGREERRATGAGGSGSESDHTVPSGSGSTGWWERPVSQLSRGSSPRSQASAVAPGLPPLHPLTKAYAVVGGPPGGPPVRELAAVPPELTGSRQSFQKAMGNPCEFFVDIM
B4: E3 ubiquitin-protein ligase SMURF2 (Mus musculus), A2A5Z6 (parent)
chain: B2 chain
partner: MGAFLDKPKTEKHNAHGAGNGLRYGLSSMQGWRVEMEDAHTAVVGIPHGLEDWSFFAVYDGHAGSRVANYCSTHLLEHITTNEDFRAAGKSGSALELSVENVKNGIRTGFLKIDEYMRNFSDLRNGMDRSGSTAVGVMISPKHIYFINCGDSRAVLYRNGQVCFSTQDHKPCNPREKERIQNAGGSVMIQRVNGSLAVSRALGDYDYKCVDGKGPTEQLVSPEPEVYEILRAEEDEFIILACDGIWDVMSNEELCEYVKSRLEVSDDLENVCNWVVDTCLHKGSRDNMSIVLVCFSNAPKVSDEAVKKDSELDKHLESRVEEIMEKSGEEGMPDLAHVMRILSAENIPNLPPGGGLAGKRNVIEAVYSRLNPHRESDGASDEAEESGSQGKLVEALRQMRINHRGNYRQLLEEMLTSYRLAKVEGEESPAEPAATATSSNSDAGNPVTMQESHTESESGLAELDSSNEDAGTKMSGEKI
B5: E3 ubiquitin-protein ligase SMURF2 (Mus musculus), A2A5Z6 (parent)
chain: B2 chain
B6: E3 ubiquitin-protein ligase SMURF2 (Mus musculus), A2A5Z6 (parent)
chain: B2 chain
partner: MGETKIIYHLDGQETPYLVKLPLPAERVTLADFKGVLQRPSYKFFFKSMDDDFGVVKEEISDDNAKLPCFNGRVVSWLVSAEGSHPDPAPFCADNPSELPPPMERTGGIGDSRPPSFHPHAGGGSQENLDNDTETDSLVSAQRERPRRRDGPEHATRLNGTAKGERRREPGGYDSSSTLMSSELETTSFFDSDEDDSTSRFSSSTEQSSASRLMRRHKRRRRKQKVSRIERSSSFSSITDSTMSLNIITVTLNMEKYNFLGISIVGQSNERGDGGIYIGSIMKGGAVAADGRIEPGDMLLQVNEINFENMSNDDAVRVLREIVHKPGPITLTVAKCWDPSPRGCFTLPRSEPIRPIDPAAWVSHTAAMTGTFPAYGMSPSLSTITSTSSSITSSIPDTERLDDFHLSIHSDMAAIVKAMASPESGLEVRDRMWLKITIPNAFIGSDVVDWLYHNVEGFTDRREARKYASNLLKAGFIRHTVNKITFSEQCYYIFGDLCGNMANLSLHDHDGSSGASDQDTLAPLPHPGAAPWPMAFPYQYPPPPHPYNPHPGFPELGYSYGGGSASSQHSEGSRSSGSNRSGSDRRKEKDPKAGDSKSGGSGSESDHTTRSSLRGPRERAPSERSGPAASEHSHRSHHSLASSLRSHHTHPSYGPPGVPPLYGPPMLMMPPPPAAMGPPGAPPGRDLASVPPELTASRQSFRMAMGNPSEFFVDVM
B7: E3 ubiquitin-protein ligase SMURF2 (Mus musculus), A2A5Z6 (parent)
chain: B2 chain
partner: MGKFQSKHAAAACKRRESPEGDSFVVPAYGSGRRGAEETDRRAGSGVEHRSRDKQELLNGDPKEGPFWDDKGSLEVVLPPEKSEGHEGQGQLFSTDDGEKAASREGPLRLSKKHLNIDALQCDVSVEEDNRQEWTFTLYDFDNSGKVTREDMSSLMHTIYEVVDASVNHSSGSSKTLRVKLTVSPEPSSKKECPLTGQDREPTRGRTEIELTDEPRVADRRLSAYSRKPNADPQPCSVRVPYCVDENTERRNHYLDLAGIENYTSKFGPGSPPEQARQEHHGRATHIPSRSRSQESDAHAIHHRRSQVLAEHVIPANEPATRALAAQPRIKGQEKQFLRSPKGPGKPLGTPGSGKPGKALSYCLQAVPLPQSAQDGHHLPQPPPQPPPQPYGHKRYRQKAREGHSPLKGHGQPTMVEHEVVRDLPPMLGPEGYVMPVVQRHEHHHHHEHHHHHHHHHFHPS

Variants of: B1
Conditions: with smuf2_mouse Smurf2, A2A5Z6

Variant | effect of a mutation on the interaction
C501R | decreasing interaction

Variants of: B1
Conditions: with smuf2_mouse Smurf2, A2A5Z6
Remark: another data set of the same source

Variant | effect of a mutation on the interaction
E499G | decreasing interaction

Variants of: B2
Conditions: with dvl2_human DVL2, O14641

Variant | effect of a mutation on the interaction
C716A | decreasing interaction

Variants of: B3
Conditions: with dvl1_mouse Dvl1, P51141

Variant | effect of a mutation on the interaction
C716A | decreasing interaction

Variants of: B4
Conditions: with ppm1b_human PPM1B

Variant | effect of a mutation on the interaction
C716A | decreasing interaction

Variants of: B5
Conditions: with elav1_human ELAVL1, Q15717
Sequence of elav1_human ELAVL1, Q15717 (Q15717 whole entry): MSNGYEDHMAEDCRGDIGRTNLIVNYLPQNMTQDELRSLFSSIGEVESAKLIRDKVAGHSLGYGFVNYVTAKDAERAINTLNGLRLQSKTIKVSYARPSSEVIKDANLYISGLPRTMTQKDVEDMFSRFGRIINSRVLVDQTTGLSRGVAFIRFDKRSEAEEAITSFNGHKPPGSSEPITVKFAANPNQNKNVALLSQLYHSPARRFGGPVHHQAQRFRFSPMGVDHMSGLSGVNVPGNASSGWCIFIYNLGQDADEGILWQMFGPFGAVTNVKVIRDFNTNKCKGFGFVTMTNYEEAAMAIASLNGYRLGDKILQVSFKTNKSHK

Variant | effect of a mutation on the interaction
C716A | decreasing interaction

Variants of: B5
Conditions: with rac1_mouse Rac1, P63001

Variant | effect of a mutation on the interaction
C716A | decreasing interaction

Variants of: B5
Conditions: with tp53b_mouse Tp53bp1, P70399
Sequence of tp53b_mouse Tp53bp1, P70399 (P70399 whole entry): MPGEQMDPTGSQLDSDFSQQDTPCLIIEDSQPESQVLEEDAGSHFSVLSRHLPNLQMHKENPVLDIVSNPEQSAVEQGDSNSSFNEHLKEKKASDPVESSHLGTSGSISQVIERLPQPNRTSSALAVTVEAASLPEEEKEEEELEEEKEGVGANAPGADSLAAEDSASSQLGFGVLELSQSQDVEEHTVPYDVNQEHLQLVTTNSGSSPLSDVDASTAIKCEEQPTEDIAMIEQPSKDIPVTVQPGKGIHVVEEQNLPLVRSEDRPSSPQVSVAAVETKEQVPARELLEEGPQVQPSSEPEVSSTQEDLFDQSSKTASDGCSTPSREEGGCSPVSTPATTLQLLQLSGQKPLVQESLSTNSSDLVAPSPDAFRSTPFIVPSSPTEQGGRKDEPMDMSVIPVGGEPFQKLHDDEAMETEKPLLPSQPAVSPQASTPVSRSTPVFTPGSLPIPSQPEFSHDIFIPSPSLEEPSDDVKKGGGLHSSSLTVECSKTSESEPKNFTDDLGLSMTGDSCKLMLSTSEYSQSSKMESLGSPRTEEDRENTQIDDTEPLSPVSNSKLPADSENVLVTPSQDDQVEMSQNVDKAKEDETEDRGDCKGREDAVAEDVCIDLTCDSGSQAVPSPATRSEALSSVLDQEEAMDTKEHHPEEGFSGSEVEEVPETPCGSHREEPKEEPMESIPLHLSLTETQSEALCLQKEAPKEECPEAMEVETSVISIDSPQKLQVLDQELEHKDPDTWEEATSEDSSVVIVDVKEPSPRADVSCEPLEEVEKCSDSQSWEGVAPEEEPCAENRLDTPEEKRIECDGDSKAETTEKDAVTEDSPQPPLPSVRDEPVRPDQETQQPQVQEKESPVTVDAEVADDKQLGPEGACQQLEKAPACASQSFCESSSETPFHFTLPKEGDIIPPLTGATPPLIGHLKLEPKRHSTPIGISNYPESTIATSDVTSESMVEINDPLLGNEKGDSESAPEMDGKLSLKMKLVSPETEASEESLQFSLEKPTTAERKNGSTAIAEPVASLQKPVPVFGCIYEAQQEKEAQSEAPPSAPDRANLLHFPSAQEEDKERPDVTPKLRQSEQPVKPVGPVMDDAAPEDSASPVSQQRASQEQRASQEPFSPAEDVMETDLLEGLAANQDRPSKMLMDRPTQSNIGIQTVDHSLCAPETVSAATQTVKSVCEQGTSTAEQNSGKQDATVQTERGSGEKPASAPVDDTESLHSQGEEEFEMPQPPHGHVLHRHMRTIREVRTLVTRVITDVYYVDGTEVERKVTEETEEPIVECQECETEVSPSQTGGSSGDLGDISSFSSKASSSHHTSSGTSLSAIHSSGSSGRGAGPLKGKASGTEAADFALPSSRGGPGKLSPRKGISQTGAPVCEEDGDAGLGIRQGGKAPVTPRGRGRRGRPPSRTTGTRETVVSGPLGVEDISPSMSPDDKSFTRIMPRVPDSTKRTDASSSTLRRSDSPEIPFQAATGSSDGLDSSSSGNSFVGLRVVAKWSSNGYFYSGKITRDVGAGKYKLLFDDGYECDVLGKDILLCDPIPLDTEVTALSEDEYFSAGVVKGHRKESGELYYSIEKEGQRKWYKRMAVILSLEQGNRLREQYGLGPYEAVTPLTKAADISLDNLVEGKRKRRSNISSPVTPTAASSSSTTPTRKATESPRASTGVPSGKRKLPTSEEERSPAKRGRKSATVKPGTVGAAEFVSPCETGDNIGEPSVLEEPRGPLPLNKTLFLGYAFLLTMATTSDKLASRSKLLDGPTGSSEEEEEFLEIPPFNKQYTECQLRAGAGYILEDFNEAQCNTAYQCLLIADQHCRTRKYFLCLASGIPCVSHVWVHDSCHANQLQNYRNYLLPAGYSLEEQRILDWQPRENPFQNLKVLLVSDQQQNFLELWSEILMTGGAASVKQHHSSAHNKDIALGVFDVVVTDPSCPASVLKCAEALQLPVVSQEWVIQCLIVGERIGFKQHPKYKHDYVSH

Variant | effect of a mutation on the interaction
C716A | decreasing interaction

Variants of: B6
Conditions: with dvl3_human DVL3, Q92997

Variant | effect of a mutation on the interaction
C716A | decreasing interaction

Variants of: B7
Conditions: with nkd2_mouse Nkd2, Q8VE28

Variant | effect of a mutation on the interaction
C716A | decreasing interaction
